From the nanobody polyreactivity screen of Harvey et al. (2022)

Test: yeast display, Sf9 membrane polyspecificity reagent, FACS + sequencing; frameworks hold sequencing errors
In short: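 A nanobody's polyreactivity label depends on the gate it was sorted from. Yeast display cells were stained with 10% biotinylated, detergent-solubilized Sf9 membrane reagent for 1 hour at 4 °C, enriched on streptavidin microbeads and sorted by FACS. The low and high (top ~1%) gates were set on anti-HA fluorescence for expression and streptavidin fluorescence for reagent binding.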

Row | Sequence | polyreactivity (PSR sort gate)
1 | QVQLVESGGGLVQAGGSLRLSCAASGSTFRKYAMGWYRQAPGKEREFVAAITWSTGTTYYADSVKGRFTISRDNAKNTVYLQMNSLIPEDTAVYYCAADSQPPHELYESIEHESWGQGTQVTVSS | low polyreactivity
2 | QVQLVESGGGLDQAGGSLRLSCAASGLTSLGNAMGWYRQAPGKERELVAAITRTGTSTYYADSVKGRFTISRDNAKNTVYLQMNSLKPEDTAVYYCNADGQSQYRYGSQYRYDYWGQGTQVTVSS | low polyreactivity
3 | QVQLVESGGGLVQAGGSLRLSCAASGRIFDYNAMGWYRQVPGKERELVAAITKDDGSTYYADSVKGRFTISRDNAKNTVYLQMTSLKPEDTAVYYCAADFYWTYVDIWYDYWGHGTQVTVSS | low polyreactivity
4 | QVQLVESGGGLVQAGGSLRLICAASGGTFGRNAMGWYRQAPGKERELVATITRRGGSTYYADSVKGRFTISRDNAKNTVYLQMNSLKPEDTAVYYCNALVTTTPRYDYWGQGTQVTVSS | high polyreactivity
5 | QVQLVESGGGLVQAGGSLRLSCADSGSIFGVYTRGWYSQAPGKERELVAAISGSGGSTYYADSVMGRFTISRDNAKNTVYFQMNSLIPEDTGVDYCATRFPNIPPYDSWGQGTQVTVSS | low polyreactivity
6 | QVQLVESGGGLVQAGGSLRLSCAASGRIFKKNAMGWYRQAPGKERELVAAISARGGSTYYADSVKGRFTISRDNAKNTVYLQMNSLKPEDTAVYYCAADEVDESIHYYTFDYWGQGTQVTVSS | high polyreactivity
7 | QVQLVESGGGLVQAGGSLRLSCAASGRIFYHYAMGWYRQAPGKERELVAAITWSGVSTYYADSVKGRFTISRDNAKNTVYLQMNSLKPDDTAVYYCATSSRYGVRRYSRGSWGQGSQVTVSS | high polyreactivity
8 | QVQLVESGGGLVQAGGSLRLSCAASGNIYSWYAMGWYRQAPGKERELVAVISRSGGSTYYADSVKGRFTISRDNAKNTVYLQMNSLKPEDTAVYYCAARAYRTPYSIQFDYWGQGTQVTVSS | high polyreactivity
9 | QVQLVESGGGLVQAGGSLRLSCAAYGSIFYSYAMGWYRQAPGKERELVASIRIGSSTNYADSVKGRFTISRDNAKNTVYLQMNSLKPEDSAVYYCAARRFYKYYYGSDYWGQGTQVTVSS | high polyreactivity
10 | QVQLVESGGGLVQAGGSLRLSCAASGFTFRWYAMGWYRQAPGKERELVAAISSSGGSTYYADSVKGRFTISRDNAKNTVYLQMKSLKPEDTAVYYCNTDANYLTNTIYDYWGQGTQVTVSS | high polyreactivity
11 | QVQLVESGGGLVQAGGSLRLICAASRSIFEINAMGWYSQAPGKERELVADNRRGDSTNYADSVNGRFTISRDNAKNTVYLQMNSLKPEVTAVYYCAARWRRSIYGVYPQRPYDYWGQGTQVTVSS | high polyreactivity
12 | QVQLVESGGGLVQAGGSLRLSCAASGFTFYPYVMGWYRQAPGKERELVAAINSGGARTYYADSVKGRFTISRDNAKNTVYLQMNSLKPEDTAVYYCAARTVVGGRIYYYWGQGTQVTVSS | high polyreactivity
13 | QVQLVESGGGLVQAGGSLRLSCAASGSTFFYNAMGWYRQAPGKERELVAAISWSGGRTYYADSVKGRFTISRDNAKNTVYLQMNSLKPEDTAVYYCNTVVSKYYKVGFGSWGHGTQVTVSS | high polyreactivity
14 | QVQLVESGGGLVQAGGSLRLSCAASGYIFRVYAMGWYRQAPGKERELVAAISGSGGRTYYADSVKGRFTISRDNAKNTVSLQMNSLKPEDTAVYYCAAYRVSDYDYWGQGTQVTVSS | high polyreactivity
15 | QVQLVESGGGLVQAGGSLLLSCAASGITFGDNAMGWYRQAPGKERELVAAISSGGSTDYADSVNGRFTISRDNAKNTVYLQMNSLKPEDTAVYYCAVDWVSVPEYDYWGQGTQVTVSS | low polyreactivity
16 | QVQLVESGGCLVQAGGSLRLSCAASGLTFNKNAMGWYRQAPGKEREFVAAITRRGGSTYYADSVKGRFTISRDNAKNTVYLQMNSLKPEDTAVYYCAVYPASVNPYHYDYWGQGTQVTVSS | high polyreactivity
17 | QVQLVESGGRLVQAGGSLRLSCAASGRIFKSYAMGWDRQAPGKERELVAAISRSGGRTYYADSVKGRFTISRDTAKNTVYLQMICLKPEDTAVYFCAGTTIVAPYWGQGTQVTVST | low polyreactivity
18 | QVQLVESGGGLLHAGGSLRLSFAASGRIFYYNGMGWYRQAPGKERELVAAISRGGSTYYADSVKGRFTISRDNAKNTVYLQMNRLLPEDTAVYDCAAYRGGLVNYWGQGSQVTVSS | high polyreactivity
19 | QVQLVESGGGLVQAGGSLRLSCAASGLIFGWYAMGWYRQAPGKERELVAAITRSGGSTYYADSVKGRFTISRDNAKNTVYLQMNSLKPEDTAVYYCAARSYVPSYDYWGQGTQVTVSS | high polyreactivity
20 | QVQLVESGGGLVQAGGSLRLSCAASGNTFVTNDMGWYRQAPRKERELVADISWGGASTYYADSVKGRFTISRDNAKNTVYLQMNSLIPEDTAVYYCYATDDITYTYSYDYWGQGTQVTVSS | low polyreactivity
21 | QVQLVESGGGLVQAGGSLRLSCAASGRIFKINAMGWYRQAPGKERELVAAITRSGGTTYYADSVKGRFTISRDNAKNTVYLQMNSLKPEDTAVDYCARAYSLRVVTGDYWGQGTQVTVSS | high polyreactivity
22 | QVQLVESGGGLVQAGGSLRLSCAASGFTFSRYAMGWYRQAPGKEREYVAAISWSGGSTYYADSVKGRFTISRDNAKNTVYLQMNSLKPEDTAVYNCNAGAQLLASQTRYDYWGQGTQVTVSS | low polyreactivity

Row | Sequence | polyreactivity (PSR sort gate)
23 | QVQLVESGGGLVQAGGSLRLSCAASGIIISVYALGWYRQAPGKERELVATISLSSGRTYYADSVKGRFTISRDNAKNTVYFQMNCLKPEDTAVYYCNAGGRTASRRYYWGQGTQVTVSS | low polyreactivity
24 | QVQLVESGGGLVQAGGSLRLSCAASGITFGYNAMGWYRQAPGKERELVAAISWRVGSTSYADSVKGRFTISRDNAKNTVYLQMNSLKPEDTAVYYCAAVRYNYNFKMYYWGQGTQVTVSS | high polyreactivity
25 | QVQLVESGGGLVQAGGSLRLSCAASGSILYIYAMGWYSQAPGKERELVASINSGGSTNYADSVKGRFTISRDNAKNTVYLQMNSLKPEDTAVYYCNADTIPDGEDRYDYWGQGTQVTVSS | low polyreactivity
26 | QVQLVESGGGLVQARGSLRLSCAASGRTFDLYAMGWYRQSPGKERELVAAITKGGGSTYYADSVKGRFTISRDNAKNTVYLQMNSLKPEDTAVYYCAARKYKRIYRISSGIGYYWGQGTQVTVSS | high polyreactivity
27 | QVQLVESGGGLVQAGGSLRLSCAASGSIFDRYALGWYRQAPGKERELVAAISTGGSTNYADSVKGRFTISRDNAKNTVYLQMNSLKPEDTAVYYCAAERYWVFHGTISYKYDYWGQGSQVTVSS | low polyreactivity
28 | QVQLLESGGGLDQAGGSLRLSCAASGRTFDRYAMGWYRQAPGKERELVAAISGRGGSTYYADSVKGRFTISRDNAKNTVYLQMNSLKPEDTAVYYCAARGSLWGAPTDYYYWGQGTQVTVSS | high polyreactivity
29 | QVQLVESGGGLVQAGGSLRLSCAASGRIFYGYARGWYRQAPGKDRELVAAIRWYGGNTYYADSVKGRFTISRDNAKNTVYLQMNSLKPEDTAVYYCNARTEYASSRYYYWGQGTQVTVSS | high polyreactivity
30 | QVQLVESGGGLVQAGGSLRLSCAASGRIFYYYAMGWYRQAPGKERELVAAISAGGGRTYYADSVKGRFTISRDNAKNTVYLQMNSLKPEDTAVYYCAVGRRIPGKYTSFGYWGQGTQVTVSS | high polyreactivity
31 | QVQLVDSGGVLVQAGGSLSLSCAASGITFPINAMGWYRQAPGKEREFVATISFSGASTYYADSVKGRFTISRDNAKNSVYLQMNSLKREDTAVYYCAARWKPPYWGRYYYWGQGTQVTVSS | high polyreactivity
32 | QVQLVESGGGLVQAGGRLRLSCAASGFIFAWYAMGWYRQAPGKEMELVAAITWSAGSTYYADSVKGRFTISRDNAKNTVFLQMNSLKPEVTAVYYCAADAWYYSIYRGGDFWGQGTQVTVSS | low polyreactivity
33 | QVQLVESGGGLVQAGGSLRLSCAAYGRIFKYYVMGWYRQAPGKERELVATISSGSGTNYADSVKGRFTISRDNAKNTVYLQMNSLKPEDTAVYYCAARWTPRVRGYNYWGQGTLVTVSS | high polyreactivity
34 | QFQLVETVGGLVQAGGSLRLSCAASGFTYKSYAMGWYCQAPVKERELVASISRRGGSTYYADSVKGRFTISRDNAKNNVYLQMNSLKPEDTAVYYCNKYFRYRGDYDYWGQGTQVTVSS | high polyreactivity
35 | QVQLVESRGGLVQAGGSLRLSCAASGFTFSAYAMGWYRQAPGKERELVAAISWSGSRTYYADSVKGRFTISRDNAKNTVYLQMNSQKPEDTAVYYCAKEPYDTFGFYDYDYWGQGTQVTVSS | low polyreactivity
36 | QVQIVESGGGLVQSGGSLRLSCAASGIIFSSNAMGWYRQAPGKERELVAAISRRGGSTYYADSVKGRFTISRDKAKNTVYLQMNSLKPEDTAVYYFIALLYNVAGYDYWGQGTQVTVSS | high polyreactivity
37 | QVQLVESGRGLVQAGGSLRLSCAASASTFYYNAMGWYRQAPGKEREFVAGITSSGAGTYYADSVKGRFTISRDNAKKTVYLQMNSLKPEDTAVYYCAAVYRWEGRTYRYVYWGQGTQVTVSS | high polyreactivity
38 | QVQLVESGGGLVQAGGSLRLSCAASGIIFRGYAMGWYRQAPGKERELVARISITGGRTYYADSVKGRFTISRDNAKNTVYLQMNSLKPEDTAVYYCAAGKYVRTVRYDYWGQGTQVTVSS | high polyreactivity
39 | QVQLVESGGGLVQAGGSLRLSCAASGIILFRYAMGWYRQAPGKERELVAAISWSGGSTYYADSVKGRFTISRDNAMNTVYLQMNCLKPEDTAVYYCAADHKYYGFGEVDYWGQGNQVTVSS | high polyreactivity
40 | QVQLVESGGRLVQAGGSLRLSCAASGRTFSNAIGWDRQAPGKEREEVADISSGGSTNYADSVKGRFTISRDNAKNTVYLQMNSLKPEDTAVYYCAAVSGSLYGYSDDYWGQGTQVTVSS | low polyreactivity
41 | QVQLVESGGGLVQAGGSLRLSCAASGRIFYHYAMGGYRPAPGKERELVAAISSSTGRSYYADSVKGRFTFSRDNAKNTVYLQMNSLKPEDSAVYYCATTPGYYGYISPRIRLYDYWGQGTQVTVSS | high polyreactivity
42 | QVQLVESGGGLVQAGGSLRLSCAASGSTFYYNAMGWYRQAPGKERELVARISRSGGSTYADSVKGRVTISRDNAKNTVYLQMNSLKPEDTAVYYCNADAYGTPEFTSYAVRYDYWGQGTQVTVSS | low polyreactivity
43 | QVQLVESWGGLVQAGGSLRLSCAASGSTFAGYAMGWYRQAPGKERELVAAIDWGGDSTYYADSVKGRFTISRDNAKNTVYLQMNSLKPEDTAVYYCAAYWYSRYDYDYWGQGTQVTVSS | low polyreactivity
